Data from paper doi:10.1101/2024.06.20.599867 (bioRxiv, 2024).

Target: the molecule itself
Assay: cryo-EM structure

B1: ABC transporter MsbA (His-tagged, E. coli) (natural protein)
chain: MHNDKDLSTWQTFRRLWPTIAPFKAGLIVAGVALILNAASDTFMLSLLKPLLDDGFGKTDRSVLVWMPLVVIGLMILRGITSYVSSYCISWVSGKVVMTMRRRLFGHMMGMPVSFFDKQSTGTLLSRITYDSEQVASSSSGALITVVREGASIIGLFIMMFYYSWQLSIILIVLAPIVSIAIRVVSKRFRNISKNMQNTMGQVTTSAEQMLKGHKEVLIFGGQEVETKRFDKVSNRMRLQGMKMVSASSISDPIIQLIASLALAFVLYAASFPSVMDSLTAGTITVVFSSMIALMRPLKSLTNVNAQFQRGMAACQTLFTILDSEQEKDEGKRVIERATGDVEFRNVTFTYPGRDVPALRNINLKIPAGKTVALVGRSGSGKSTIASLITRFYDIDEGEILMDGHDLREYTLASLRNQVALVSQNVHLFNDTVANNIAYARTEQYSREQIEEAARMAYAMDFINKMDNGLDTVIGENGVLLSGGQRQRIAIARALLRDSPILILDEATSALDTESERAIQAALDELQKNRTSLVIAHRLSTIEKADEIVVVEDGVIVERGTHNDLLEHRGVYAQLHKMQFGQ
**Q.** Does B1 bind?
**A.** Result: binds
